By EC50 is commonly meant the concentration at which the effect is half-maximal. The low end stands for greater potency, the high end for weaker potency.

This note sets out measurements from patent US20220195015A1 (published 2022).

Residue numbers refer to the chain shown, from its start.

B1: C707 (antibody, V domains shown)
VH: EVQLVESGGGLVKPGGSLRLSCAASGFTFSSYSMNWVRQAPGKGLAWVSSISSSNNIIYYADSVKGRFTISRDDAKDSLYLHMKSLRADDTAVYFCARVPSWAPYQLLPGPFDYWGQGILVTVSS
VL: IRMTQSPSSLSASVGDRVTITCQASQAIASYLSWYQHKPGRAPKLLIYDASNLEIGVPSRFSGSGSGTDFTFTISSLQSEDNATYYCQQYESLPGTFGGGTKVEIK
B2: C704 (antibody, V domains shown)
VH: VQLVESGGGVVQPGRSLRLSCAASGFTFSRYGMHWVRQAPGKGLEWVAVSSYDGSNEYYANSVKGRFTISRDNSKNTLYLQMNSLRAEDTAVYYCAKTGASYCGGDCPFHFDYWGQGTLVTVSS
VL: IRMTQSPSSLSASVGDRVTITCQASQDINNYLNWYQQKPGKAPKLLIYDASDLETGVPSRFSGGGSGTDFTFTISSLQPEDIATYYCQHYNNLPITFGQGTRLEIK
B3: C703 (antibody, V domains shown)
VH: EVQLLESGGGLVQPGGSLRLSCAGSGFTFSHYALSWVRQAPGKGLEWVSCISGTGGNSHYADSVKGRFTSSRDNSKNILYLQMNSLRAEDTAVYFCAKGGDFWSGYLIPFDSWGQGTLVTVSS
VL: SYELTQSPSVSVAPGKTARITCGGDSIGSKNVHWYQQKPGQAPVLVMYYDNDRPSGIPERFSGYNSGNTATLSISRVEAGDEADYYCLVWDGSGDPWVFGGGTKLTVL
B4: C047 (antibody, V domains shown)
VH: QVQLQESGPGLVKPSETLSLTCTVSGGSISSTTYYWDWIRQSPGKGLEWIGSIFYTGITYYSPSLKSRVTISVDTSKNQFSLRLNSMTAADTAVYYCARRLRQLWFGPWFDPWGQGTLVTVSS
VL: QSALTQPPSASGSPGQSVTISCTGTRSDVGDYNYVSWYQQHPDKAPKLIIYEVTKRPSGVPDRFSGSKSGNTASLTVSGLQAEDEADYYCSSYAGSNNVMFGGGTKLTVL
B5: C710 (antibody, V domains shown)
VH: B4 VH with T23I, S30N, S67T
VL: B4 VL with Y51F, N97S
B6: C049 (antibody, V domains shown)
VH: QVQLQESGPGLVKPSETLSLTCTVSGGSVSSGTFYWSWIRQPPGKGLEWIGYIHYSGSTNYNPSLKSRVTISVDTSKNQFSLRLSSVTAADTAVYYCARESFYYDRSGYYGSDAFDIWGQGTMVTVSS
VL: DIQMTQSPSTLSSSVGDRVTITCRASQNISRWLAWYQQKPGKAPKLLIYKASTLESGVPSRFSGSGSGTKFTLTISSLQPDDFATYYCQQYNSYLYTFGQGTKLEIK
B7: C046 (antibody, V domains shown)
VH: EVQLVESGGGLAQPGRSLRLSCAASGFTFDDYAMHWVRQAPGKGLEWVSGINWNSGSLGYADSVKGRFTISRGIAKNSLYLQMNSLRPEDTAFYYCAKAGVRGIAAAGPDLNFDYWGQGTLVTVSS
VL: EIVLTQSPATLSLSPGERATLSCRASQSVSSYLAWYQQKPGQAPRLLIYDASNRATGIPARFIGSGSGTDFTLTISSLEPEDFAVYYCQQRITFGQGTRLEIK
B8: C048 (antibody, V domains shown)
VH: VQLQESGPGLVKPSETLSLTCAVSGGSVSSGNYYWNWIRQPPGKGLEWIGYIYYSGSTNYNPSLKSRVTISVDTSKNQFSLKLNSVTAADTAVYHCARETYYYDSSGYYISDAFDIWGQGTMVTVSS
VL: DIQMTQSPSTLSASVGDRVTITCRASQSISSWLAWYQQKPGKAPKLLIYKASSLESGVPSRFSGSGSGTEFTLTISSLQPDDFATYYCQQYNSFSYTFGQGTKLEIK
B9: C706 (antibody, V domains shown)
VH: EVQLVESGGGLVKPGGSLRLSCAASGFTFSNVWMSWVRQAPGKGLEWVGRIKSKIDGGTTEYAAPVKGRFIISRDDSKNTLSLQMNSLKTEDTAVYYCTTDHGREPPVHWGQGTLVTVSS
VL: EIVLTQSPGTLSLSPGERASLSCRARQSVYSNYLAWYQHKSGQAPRLLFYGASSRATDIPDRFSASGSGTDFTLTISRLEPEDFAVYYCLQYGPSPTFGPGTRLEIK
B10: C527 (antibody, V domains shown)
VH: QVQLVESGGGVVQPGRSLRLSCAASGFTFSSYGMHWVRQAPGKGLEWVALIGYDGTDKYYAENVKGRFTISRDNSKNTLFLQMNSLRGGDTAVYLCARDGIPFRYGMDVWGQGTTVTVSS
VL: DIQMTQSPSTLSASVGDRVTITCRASQSIDIWLAWYQQKPGKAPKFLIHKASTLESGVPSRFSGSGSGTEFTLTISSLQPDDFATYYCQHYHSYSGTFGQGTKVEIK
B11: C528 (antibody, V domains shown)
VH: EVQLVESGGGLVQPGGSLRLSCAASGFTFRNYDMHWVRQVAGKGLEWVSAIGTSGDTYYPDSVKGRFTISRENAKNSVYLQMNNLRAGDTAVYFCVRDREISGWTGWYFDLWGRGTLVTVSS
VL: DIQMTQSPSSLSASVGDRVTITCRASQTIHNYLNWYQQIPGKAPRLLIYATNTLQSGVPSRFSGSGSGTDFTLTITGLQPEDFATYYCQQSYSTPPITFGQGTRLEIK
B12: C523 (antibody, V domains shown)
VH: QVQLQESGPGLVKPSETLSLTCTVSGASISSHYWSWIRQPPGKGLEWIGYIHYIGSTNYNPSLKSRVTILLDTSKNQFSLRLRSVTAADTAVYYCARGWPYCGVDCYSGFDYWGQGTLVTVSS
VL: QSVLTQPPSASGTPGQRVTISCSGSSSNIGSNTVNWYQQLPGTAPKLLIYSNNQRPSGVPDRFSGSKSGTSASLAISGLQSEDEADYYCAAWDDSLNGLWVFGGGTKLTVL
B13: C524 (antibody, V domains shown)
VH: EVQLVESGGDLIQPGGSLRLSCAASGFSVSNSYMSWVRQAPGKGLEWVSIIYSGGSTYYADSVKGRFTISRDNSKNTLYLQMNSLRAEDTAVYFCAKTPRGDYDSSGTSAYWGQGTLVTVSS
VL: QLVLTQSPSASASLGASVNLTCTLSSGHSSYAIAWHQQQPEKGPRFLMKLSSDGSHNKGDGIPDRFSGSSSGAERFLTISSLQSEDEADYYCQTWGIGSDWVFGGGTKLTVL
B14: C526 (antibody, V domains shown)
VH: QVQLVQSGAEVKKPGASVKVSCKASGHTFTTYYLHWVRQAPGQGLEWMGRIDPSGGSTTYAQKFQGRVTMTRDTSTSTVYMELSSLRSEDTALYYCARGGYCGSTSCSPDDYFDYWGQGTLVTVSS
VL: SYELTQPPSVSVAPGKTARITCGGNNIGSKSVHWYQQKPGQAPVLVIYYDSDRPSGIPERFSGSNSGNTATLTISRVEAGDEADYYCQVWDSSSDHYYVFGTGTKVTVL
B15: C529 (antibody, V domains shown)
VH: EVQLLESGGGLVQPGGSLRLSCAASGFTFNNYAMNWVRQAPGRGLEWVSGISGSGANTYYADSVKGRFTISRDNPKNTLSLQMNSLRAEDTALYYCAKVLSPTYYDSWSGPDAFDFWGQGTMVTVSS
VL: DIQMTQSPSTLSASVGDRVTITCRASQTISPWLAWYQQKPGKAPNLLIYKASSLESGVPSRFSGSGSGTEFTLTISSLQPDDFATYYCQQYNSYSSWTFGQGTKVEIK
B16: C532 (antibody, V domains shown)
VH: EVQLVQSGAEVKKPGESLKISCKGSGYRFTNYWIGWVRQMPGKGLEWIGNIFPGDSDSRYSPSFQGQVTISVDMSITTAYLHWSSLKASDTAIYYCARLSERWYSPFDSWGQGTLVTVSS
VL: EIVMTQSPATLSVSPGERATLSCRASQSVSSNLAWYQQKPGQAPRLLIYGASTRATGFPARFSGSGSGTEFTLTISSLQSEDFAVYFCQQYNNWPPGGFTFGPGTKVDIK
B17: C531 (antibody, V domains shown)
VH: EVQLVESGGGLVQPGRSLRLSCVATGFTFDDFAMHWVRQAPGKGLEWVSGISWNGGIIGYVDSVKGRFTISRDNAKNSLYLQMNSLRPEDTALYYCVKGYRYYYDILTGYYNDAGAFDYWGQGTLVTVSS
VL: DIQSTQSPSFLSASVGDRVAITCRASQGISSYLAWYQQKPGKAPKLLIYPASTLQSGVPSGFSGSGSGTEFTLTISSLQPEDFATYYCQQLNDYPFTFGPGTKVDIK
B18: C525 (antibody, V domains shown)
VH: EVQLVESGGRLVQPGRSLRLSCAASGFTFDDYAIHWVRQAPGKGLEWVSGISWNSGSIGYADSVRGRFTISRDNAKNSLYLQMNSLRAEDTALYYCAKGLDSSSSASPDYWGQGTLVTVSS
VL: DIQMTQSPSSVSASVGDRVTITCRASQDISSWLAWYQQKPGKAPKLLIYLASSLQSGVPSRFSGSGSGTDFILTISSLQPEDFGTYYCQQGNSFPLTFGGGTKVEIK
B19: C517 (antibody, V domains shown)
VH: EVQLVESGGGLVQPGGSLRLSCAASEFIVSRNYMSWVRQAPGKGLEWVSLIYSGGSTYYADSVKGRFTISRDNSKNTLYLQMNSLRAEDTAMYYCARDIAGRLDYWGQGTLVTVSS
VL: DIQMTQSPSSLSASVGDRVTITCQASQDISKYLNWYQQKPGKAPKLLIYDASNLETGVPSRFSGSGSGTDFTFTISSLQPEDFATYYCQHYDSLSRLTFGGGTKVEIK
B20: C530 (antibody, V domains shown)
VH: QVQLVESGGGVAQPGRSLRLSCAASGFTFSRYGMHWVRQAPGKGLEWVAVIWHDGSDKYCADFVKGRFTISRDNSKNTLYMQMDSLRAEDTAVYYCARGGRPDHETGIAVLGEYYFDSWGQGTLVTVSS
VL: SYELTQPPSVSVSPGQTARITCSGDAFPLQYGYWYQQKPGQAPVLVIYKDKERPSGISERFSGSSSGTTVTLTISGVQAEDEADYYCQSADTNGVVFGGGTSLTVL
B21: C597 (antibody, V domains shown)
VH: QVQLVQSGPEVKKPGTSVKVSCKASGFTFTNSAVQWVRQSRRQRLEWIGWIVVGSGNTNYAQKFQERVTITRDMSTSTAYMELSSLRSEDTAVYYCAAVDCNSTSCYDAFDIWGQGTMVTVSS
VL: EIVLTQSPGTLSLSPGERATLSCRASQSFRSSYLAWYQQKPGQAPRLLIYGASSRATGIPDRFSGSGSGSDFTLTISRLEPEDFAVYYCQQYDISPWTFGQGTKVEIK
B22: C598 (antibody, V domains shown)
VH: QVQLVQSGPEVKKPGTSVKVSCKASGFTFSSSAVQWVRQARGQRLEWIGWIVVGSGNTNYAQKFQERVTITRDMSTSTAYMELSSLRSEDTAVFYCAAPYCNVTTCFDGFNIWGRGTMVTVSS
VL: B21 VL with F29V, L34F, G51A, S70T, V86L, D93G, I94S

For one test, the target named is SARS-CoV-2 spike protein receptor binding domain (RBD) (SARS-CoV-2, UniProt P0DTC2 319-539). Kind of test: ELISA on plate-coated RBD. (In general: ELISA stands for enzyme-linked immunosorbent assay.)
On to B1, for which the response was half-maximal at 26 ng/mL (EC50).

B2: the midpoint of the response, the EC50, lay at 13.4 ng/mL.

As for B3, the EC50 was found to be 10.9 ng/mL.

Molecule B4 gave an EC50 of 11.1 ng/mL.

Take B5: a half-maximal effect (EC50) was put at 17.8 ng/mL.

B6: the EC50 was determined as 4.09 ng/mL.

As to B7, the midpoint of the response, the EC50, lay at 4.02 ng/mL.

Molecule B8 came in with a half-maximal effective concentration (EC50) of 4.8 ng/mL.

Molecule B9 came in with an EC50 of 73.5 ng/mL.

A further test has as its target SARS-CoV-2 spike protein receptor binding domain (RBD), wild type (SARS-CoV-2, UniProt P0DTC2 319-539). Description: ELISA, RBD protein coated on plate, antibody titrated.
Molecule B10 showed an EC50 of 13.4 ng/mL.

In turn, B11 had a half-maximal effective concentration (EC50) of 5.66 ng/mL.

On to B12, for which the EC50 worked out at 9.08 ng/mL.

On to B13, for which the EC50 stood at 5 ng/mL.

B14 yielded an EC50 of 18.2 ng/mL.

In the case of B15, the midpoint of the response, the EC50, lay at 8 ng/mL.

In turn, B16 had an EC50 of 1 ng/mL.

For the molecule B17, the EC50 is 6.84 ng/mL.

B18 displayed a half-maximal effective concentration (EC50) of 10.6 ng/mL.

Consider B19, for which a half-maximal response (EC50) required 0.87 ng/mL.

The molecule B20 returned an EC50 of 10.5 ng/mL.

The molecule B21 showed an EC50 of 3.77 ng/mL.

Take B22: the response was half-maximal at 3.78 ng/mL (EC50).
